Source: publication PMC6114900, “Molecular basis for CesT recognition of type III secretion effectors in enteropathogenic Escherichia coli” (PLoS Pathogens, 2018)

Experiments:
[1] = target: T1, CesT (no tag, co-expressed and co-purified with His6-Tir constructs) (enteropathogenic Escherichia coli (EPEC), UniProt P21244 1-156); assay: SEC; settings: both partners purified
T1 construct: also called full-length CesT

[2] = target: T2, CesT^138 (no tag, co-expressed and co-purified with His6-Tir peptides) (enteropathogenic Escherichia coli (EPEC), UniProt P21244 2-138); assay: pull-down; settings: partners not purified
T2 construct: also called CesT^2-138
T2 sequence (P21244 2-138): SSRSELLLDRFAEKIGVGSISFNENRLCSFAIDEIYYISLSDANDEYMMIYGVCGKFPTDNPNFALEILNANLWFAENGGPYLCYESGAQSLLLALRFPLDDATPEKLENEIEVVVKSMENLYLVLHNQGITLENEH

T1 sequence (P21244 whole entry): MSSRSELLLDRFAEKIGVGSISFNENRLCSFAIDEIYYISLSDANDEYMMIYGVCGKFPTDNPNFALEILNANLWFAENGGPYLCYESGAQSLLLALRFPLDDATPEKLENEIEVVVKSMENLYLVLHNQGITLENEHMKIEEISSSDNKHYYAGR

Binder | binding result [1] | binding result [2]
His6-Tir^23-80 (domain or fragment, not shown: His6, N-terminal, kept) PSQTDGAARGGTGHLISSTGALGSRSLFSPLRNSMADSVDSRDIPGLPTNPSRLAAAT | binds | –
GGTGHLISSTGALGSRSLFSPLRNSMADSVDSRDIPGLPTNPSRLAAAT (domain or fragment, not shown: His6, N-terminal, kept) [His6-Tir^32-80] | binds | binds
His6-Tir^490-550 (domain or fragment, also called C-terminal Tir peptide; not shown: His6, N-terminal, kept) SGSGPVTGRLIGTPGQGIQSTYALLANSGGLRLGMGGLTSGGESAVSSVNAAPTPGPVRFV | binds | –
GHLISSTGALGSRSLFSPLRNSMADSVDSRDIPGLPTNPSRLA (domain or fragment, not shown: His6, N-terminal, kept) [His6-Tir^35-77] | binds | –
